# Data taken from article PMC9631991 (Biochemistry, 2022).
# Legend:
# LC3B-I (residues 1-120) = LC3B-I (residues 1-120) (human, UniProt Q9GZQ8 1-120); assay: ITC; 25 °C; 20 mM HEPES pH 7.5, 200 mM NaCl, 0.5 mM TCEP; 10~68 uM LC3B proteins in the cell, 10-fold higher concentration of ATG4b in the syringe; single-site binding model; conditions: both partners purified
# [1] = target: LC3B-115 (residues 1-115) (human, UniProt Q9GZQ8 1-115); assay: as above; conditions: both partners purified
# [2] = target: pro-LC3B (residues 1-125) (human, UniProt Q9GZQ8 1-120); assay: cell-based or functional assay
Kd (LC3B-I (residues 1-120)) [µM],stoichiometry N (LC3B-I (residues 1-120)),stoichiometry N [1],"fold decrease in KM of cleavage of the FRET substrate CFP-proLC3B-YFP, further fold against ATG4b-382 [2] [fold]",Binder
4.7,0.9 ± 0.2,0.9 ± 0.2,–,ATG4b WT (full-length ATG4b) (enzyme) MDAATLTYDTLRFAEFEDFPETSEPVWILGRKYSIFTEKDEILSDVASRLWFTYRKNFPAIGGTGPTSDTGWGCMLRCGQMIFAQALVCRHLGRDWRWTQRKRQPDSYFSVLNAFIDRKDSYYSIHQIAQMGVGEGKSIGQWYGPNTVAQVLKKLAVFDTWSSLAVHIAMDNTVVMEEIRRLCRTSVPCAGATAFPADSDRHCNGFPAGAEVTNRPSPWRPLVLLIPLRLGLTDINEAYVETLKHCFMMPQSLGVIGGKPNSAHYFIGYVGEELIYLDPHTTQPAVEPTDGCFIPDESFHCQHPPCRMSIAELDPSIAVGFFCKTEDDFNDWCQQVKKLSLLGGALPMFELVELQPSHLACPDVLNLSLDSSDVERLERFFDSEDEDFEILSL
–,–,–,2.6,ATG4b-366 (domain or fragment) MDAATLTYDTLRFAEFEDFPETSEPVWILGRKYSIFTEKDEILSDVASRLWFTYRKNFPAIGGTGPTSDTGWGCMLRCGQMIFAQALVCRHLGRDWRWTQRKRQPDSYFSVLNAFIDRKDSYYSIHQIAQMGVGEGKSIGQWYGPNTVAQVLKKLAVFDTWSSLAVHIAMDNTVVMEEIRRLCRTSVPCAGATAFPADSDRHCNGFPAGAEVTNRPSPWRPLVLLIPLRLGLTDINEAYVETLKHCFMMPQSLGVIGGKPNSAHYFIGYVGEELIYLDPHTTQPAVEPTDGCFIPDESFHCQHPPCRMSIAELDPSIAVGFFCKTEDDFNDWCQQVKKLSLLGGALPMFELVELQPSHLACPDVLN
